# Test results as given in patent US5863776A, “Method of preparing apoenzyme” (Research Development Foundation, priority 1996, dated 1999).
# T1: MAO B (Homo sapiens, UniProt P27338, E34D)
# T1 construct: expressed in transfected cells; host or cells: Rib+ COS-7, transient
# T1 sequence (P27338 2-520 E34D): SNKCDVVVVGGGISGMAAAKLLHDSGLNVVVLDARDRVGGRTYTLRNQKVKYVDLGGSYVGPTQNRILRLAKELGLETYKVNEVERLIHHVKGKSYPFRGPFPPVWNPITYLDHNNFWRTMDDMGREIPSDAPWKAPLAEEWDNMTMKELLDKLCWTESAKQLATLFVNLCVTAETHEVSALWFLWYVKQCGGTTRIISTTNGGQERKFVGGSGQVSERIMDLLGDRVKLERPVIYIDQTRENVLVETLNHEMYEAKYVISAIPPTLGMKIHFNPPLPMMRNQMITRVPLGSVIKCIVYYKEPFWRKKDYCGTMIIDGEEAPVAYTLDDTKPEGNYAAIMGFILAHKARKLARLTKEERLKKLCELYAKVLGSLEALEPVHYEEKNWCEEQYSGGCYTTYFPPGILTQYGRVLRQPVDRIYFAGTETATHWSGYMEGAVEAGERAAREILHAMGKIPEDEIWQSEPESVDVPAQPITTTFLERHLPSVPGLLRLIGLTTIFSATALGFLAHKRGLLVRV
# B1: E34D: MAO B with Glu in position 34 replaced with Asp (protein, UniProt P27338 2-520, looked up, variant E34D)
# Amine oxidase …: SNKCDVVVVGGGISGMAAAKLLHDSGLNVVVLDARDRVGGRTYTLRNQKVKYVDLGGSYVGPTQNRILRLAKELGLETYKVNEVERLIHHVKGKSYPFRGPFPPVWNPITYLDHNNFWRTMDDMGREIPSDAPWKAPLAEEWDNMTMKELLDKLCWTESAKQLATLFVNLCVTAETHEVSALWFLWYVKQCGGTTRIISTTNGGQERKFVGGSGQVSERIMDLLGDRVKLERPVIYIDQTRENVLVETLNHEMYEAKYVISAIPPTLGMKIHFNPPLPMMRNQMITRVPLGSVIKCIVYYKEPFWRKKDYCGTMIIDGEEAPVAYTLDDTKPEGNYAAIMGFILAHKARKLARLTKEERLKKLCELYAKVLGSLEALEPVHYEEKNWCEEQYSGGCYTTYFPPGILTQYGRVLRQPVDRIYFAGTETATHWSGYMEGAVEAGERAAREILHAMGKIPEDEIWQSEPESVDVPAQPITTTFLERHLPSVPGLLRLIGLTTIFSATALGFLAHKRGLLVRV
# Key:
# MAO B [1] = target: T1, MAO B; assay: [^14 C] FAD incorporation into wild-type or mutant MAO B in Rib^- COS-7 cells (immunoprecipitation, fluorography); assay type: binding; conditions: densitometer
# Procedure: (§1) Mutagenesis was carried out by the method of Deng and Nickoloff (22) using a Transformer Site-directed Mutagenesis kit (Clontech). Glu in position 34 was replaced with Asp (E34D), Gln (E34Q), or Ala (E34A), and Val in position 10 was replaced with Ile (V10I) as described by Kwan et al. (18).
# (§2) Wild-type or mutant MAO B cDNAs were transiently transfected into COS-7 cells by electroporation (23) as previously described (18). Briefly, Rib^+ - or Rib^- COS-7 cells were harvested during late log phase growth and resuspended to a concentration of 3.1×10^6 cells/ml in either riboflavin-containing or riboflavin-free medium, respectively. Wild-type or mutant MAO B cDNAs ([…]) were added to 0.8 ml of cell suspension. […] Electroporation was carried out in a Bio-Rad Gene Pulser with a setting of 250 V and 500 μF. Cells were resuspended in 15 ml of riboflavin-containing or riboflavin-free medium and incubated at 37° C. with 5% CO2. Transfected COS-7 cells were harvested at 48 hours and homogenized in a lysis solution containing 20 mM Tris-HCl, 1 mM EDTA, 0.5 mM PMSF, pH 8.0. The homogenate was diluted with an equal volume of the same buffer supplemented with 300 mM NaCl to obtain a 150 mM final NaCl concentration. Triton X-100 (Pierce) was added to the lysate to give a final concentration of 0.25%, and the samples were allowed to stir for 50 min. at 4° C. to extract MAO B from the outer mitochondrial membrane. After Triton extraction, the lysate was centrifuged at 1300×g for 5 min. at 4° C. to remove insoluble cell debris.
# (§3) Transfected Rib^+ - or Rib^- COS-7 cells were homogenized, and extracted with 0.25% Triton X-100 for 50 minutes at 4° C. The cell lysates were centrifuged at 1300×g for 5 minutes, and an aliqout of each supernatant was analyzed for MAO B concentration by ELISA. All supernatants were then adjusted to equal MAO B concentration and incubated with polyclonal goat anti-MAO B antibody (10 μg) overnight at 4° C. Protein-G Sepharose beads (Pierce) were added (50 μl) and incubation was continued for 3 hours. The protein-G Sepharose/goat antibody/MAO B immmunocomplex was collected by centrifugation at 10,000×g for 20 seconds and washed 6 times with 150 μl of 20 mM Tris buffer, pH 8.0. The immunocomplex was then dissolved in SDS-PAGE sample buffer and analyzed by Western blot or fluorography.
# (§4) The immunoprecipitated proteins (obtained as described above) were subjected to electrophoresis in a 10% SDS-polyacrylamide gel and examined by Western blotting as previously described (18). The immunoprecipitated proteins (obtained as described above) were subjected to electrophoresis in a 10% SDS-polyacrylamide gel. The SDS-PAGE gel was fixed by soaking in 7% acetic acid, 10% methanol, 83% H2 O for 1 hour, and then processed for fluorography as described by Bonner and Laskey (27). The dried gel was exposed to Kodak X-OMAT AR film at -80° C. for 2 weeks.
# (§5) The expressed wild-type and variant MAO Bs were adjusted to equal concentrations using ELISA before immunoprecipitation, and then analyzed by fluorography. The amount of incorporation of [^14 C] […] FAD was incorporated into the enzyme.
# MAO B [2] = assay: as above; assay type: binding, human; conditions: about 59 kDa; equal MAO B concentrations
# Procedure: as §1, §2, §3, §4, §5
# MAO B [3] = target: T1, MAO B; conditions: cited from earlier work
molecule,measurement,setting,value
B1,"[^14 C] FAD incorporation, percent of wild-type",MAO B [1],about 10%
same,[^14 C] FAD incorporation (band on fluorogram),MAO B [2],faint band
same,reduction in activity,MAO B [3]; Rib^+ COS-7 cells,93%
same,"activity, % of wild-type activity",MAO B [3],7%
